# In patent US20260242478A1 (published 2026):
# Where no end group is shown, it is not given here.
# B1: Phage-49 clonal phage peptide (peptide, not shown: large carriers)
# peptide: MSWCPIHLWNECFN
# modifications: cysteine pairing not given here; also: displayed on phage by fusion to pIII, linker and pIII sequence not given here
# B2: Phage-52 clonal phage peptide (peptide, not shown: large carriers)
# peptide: MDWCPINLWDECFS
# modifications: cysteine pairing not given here; also: displayed on phage by fusion to pIII, linker and pIII sequence not given here
# B3: Phage-53 clonal phage peptide (peptide, not shown: large carriers)
# peptide: MDWCPMHLWNKCFN
# modifications: cysteine pairing not given here; also: displayed on phage by fusion to pIII, linker and pIII sequence not given here
# B4: Phage-51 clonal phage peptide (peptide, not shown: large carriers)
# peptide: MDWCPMDLWDYCFN
# modifications: cysteine pairing not given here; also: displayed on phage by fusion to pIII, linker and pIII sequence not given here
# B5: Phage-54 clonal phage peptide (peptide, not shown: large carriers)
# peptide: MNWCPRDMWYQCFN
# modifications: cysteine pairing not given here; also: displayed on phage by fusion to pIII, linker and pIII sequence not given here
# B6: Phage-50 clonal phage peptide (peptide, not shown: large carriers)
# peptide: MDWCPPYLWNVCFS
# modifications: cysteine pairing not given here; also: displayed on phage by fusion to pIII, linker and pIII sequence not given here
# B7: Phage-55 clonal phage peptide (peptide, not shown: large carriers)
# peptide: QDWCPRHMWSFCFH
# modifications: cysteine pairing not given here; also: displayed on phage by fusion to pIII, linker and pIII sequence not given here
# Tests used:
# [1] = biological target: T1, Anti-CD28 scFv (VH - linker 1 - VL) (biotinylated (site not stated)); assay: phage binding ELISA on captured anti-CD28 scFv; wells pre-incubated with soluble CD28 protein (competitor)
# T1 sequence (scFv, as listed by the source): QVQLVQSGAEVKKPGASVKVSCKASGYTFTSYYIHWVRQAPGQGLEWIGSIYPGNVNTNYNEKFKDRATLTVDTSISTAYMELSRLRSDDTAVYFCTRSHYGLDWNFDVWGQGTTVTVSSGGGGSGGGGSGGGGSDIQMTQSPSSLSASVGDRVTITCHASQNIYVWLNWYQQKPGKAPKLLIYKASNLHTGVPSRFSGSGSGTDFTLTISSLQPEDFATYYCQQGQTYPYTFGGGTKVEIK
# [2] = biological target: T1, Anti-CD28 scFv (VH - linker 1 - VL); assay: phage binding ELISA; biotinylated anti-CD28 scFv on neutravidin plate, clonal phage supernatant, anti-M13 HRP detection
# Experimental: (§1) Clonal phage were harvested as crude supernatants and screened via standard enzyme linked immunosorbent assays (ELISAs). […] Prior to the addition of clonal phage, wells were incubated with blocking buffer and CD28 soluble protein or blocking buffer alone. Without washing or aspirating, clonal phage supernatants were then added to the wells and incubated for a short time. Wells were then washed followed by detection of bound phage using a horse radish peroxidase conjugated anti-M13 antibody.
# [3] = biological target: T2, anti-CD28 scFv (VH - linker 1 - VL) (biotinylated (site not stated)); assay: phage ELISA; biotinylated anti-CD28 scFv on neutravidin plate, clonal phage supernatant, anti-M13 HRP detection;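 further: before phage addition, wells were pre-incubated with blocking buffer plus soluble CD28 protein, or blocking buffer only, with no wash in between, signal reflects phage remaining bound after washing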
# T2 sequence (scFv, as listed by the source): as above
# [4] = biological target: T2, anti-CD28 scFv (VH - linker 1 - VL); assay: phage ELISA as above, wells pre-incubated with soluble CD28 as competitor
# Experimental: as §1
# [5] = biological target: T3, anti-CD28 scFv (VH - linker 1 - VL) (biotinylated (site not given)); assay: phage ELISA as above; wells pre-incubated with soluble CD28 as competitor;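 further: crude clonal phage supernatants tested, with bound phage detected by HRP-conjugated anti-M13 antibody, and reference wells given blocking buffer without CD28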
# T3 construct: Biotinylated scFv captured on neutravidin coated plates in the panning ELISA
# T3 sequence (scFv, as listed by the source): as above
Binder,CD28 scFv signal in presence of CD28 [1],CD28 scFv signal [2],CD28 scFv signal [3],CD28 scFv signal in presence of CD28 [4],CD28 scFv signal in presence of CD28 [5]
"MVSCPTTMWNRCFN (peptide, not shown: large carriers) [Phage-61 clonal phage peptide]",0.072,1.33,–,–,–
MDWCPAYLWAECFS [Phage-175],–,–,0.64,0.12,–
"MHWCPMDQWSNCFN (peptide, not shown: large carriers) [Phage-56 clonal phage peptide]",0.084,0.515,–,–,–
B1,0.284,2.06,–,–,–
B2,0.096,1.5,–,–,–
B3,0.122,1.04,–,–,–
MDWCPRYLWAECFY [Phage-102],–,–,–,–,0.354
MDWCPRDLWHECFN [Phage-103],–,–,–,–,0.218
MDWCPRDLWAECFN [Phage-107],–,–,–,–,0.207
MDWCPIYLWDECFN [Phage-106],–,–,–,–,0.215
MDWCPRDMWYECFN [Phage-191],–,–,2.56,0.235,–
"MHWCPIDRWADCFN (peptide, not shown: large carriers) [Phage-58 clonal phage peptide]",0.077,0.287,–,–,–
IGKLTLCLNADLVI [Phage-187],–,–,0.116,0.1,–
MDWCPMNLWSECFN [Phage-173],–,–,0.67,0.124,–
MDWCPSYLWDQCFF [Phage-188],–,–,0.083,0.079,–
MDWCPKHLWNECFN [Phage-174],–,–,0.663,0.105,–
"MDWCPRDSWHLCFA (peptide, not shown: large carriers) [Phage-59 clonal phage peptide]",0.147,2.45,–,–,–
MDWCPSDLWHECFH [Phage-176],–,–,0.629,0.164,–
"MDWCPRTLWYLCFN (peptide, not shown: large carriers) [Phage-60 clonal phage peptide]",1.2,2.59,–,–,–
B4,0.107,1.64,–,–,–
"MDWCPSYLWNECFF (peptide, not shown: large carriers) [Phage-62 clonal phage peptide]",0.133,2,–,–,–

Binder,CD28 scFv signal in presence of CD28 [1],CD28 scFv signal [2],CD28 scFv signal [3],CD28 scFv signal in presence of CD28 [4],CD28 scFv signal in presence of CD28 [5]
MDWCPRDMWAECFF [Phage-190],–,–,2.69,2.26,–
MDWCPPYLWYECFA [Phage-172],–,–,0.692,0.094,–
VDWCPRYLWHVCYN [Phage-189],–,–,0.065,0.061,–
MHWCPRSLWNECYF [Phage-182],–,–,0.456,0.115,–
MDWCPRSLWHYCFA [Phage-101],–,–,–,–,0.338
LDWCPRDLWHVCFF [Phage-178],–,–,0.61,0.105,–
B5,0.177,1.95,–,–,–
"MDWCPRHRWVDCFY (peptide, not shown: large carriers) [Phage-57 clonal phage peptide]",0.11,0.478,–,–,–
MDWCPWILWNECFN [Phage-179],–,–,0.581,0.137,–
MDWCPVSLWDHCFN [Phage-177],–,–,0.616,0.1,–
QDWCPTYLWHHCFN [Phage-186],–,–,0.123,0.122,–
MDWCPRYLWNVCFN [Phage-105],–,–,–,–,0.57
MDWCPRDLWDLCFF [Phage-104],–,–,–,–,0.156
IDWCPRDLWALCFN [Phage-183],–,–,0.37,0.129,–
MHWCPRYLWDECFN [Phage-180],–,–,0.55,0.127,–
B6,0.1,1.64,–,–,–
MYWCPRDLWDVCFN [Phage-181],–,–,0.512,0.102,–
B7,0.081,0.074,–,–,–
MDWCPRALWHECFT [Phage-108],–,–,–,–,0.191
MHWCPINLWNECFS [Phage-184],–,–,0.316,0.098,–
"MDWCPMYLWNECFN (peptide, not shown: large carriers) [Phage-65 clonal phage peptide]",0.471,2.61,–,–,–
